Measured values from article PMC11449445, “Fission yeast Duc1 links to ER–PM contact sites and influences PM lipid composition and cytokinetic ring anchoring” (Journal of Cell Science, 2024).

Legend:
[1] = target: T1, His6–Scs2(1–127) (S. pombe, UniProt O60119 1-127); experiment: pull-down; bead-bound His6–Scs2(1–127) (2–3 µg) incubated with 10 µg GST or GST–Duc1(351–380) in 500 µl 20 mM Tris-HCl pH 7.4, 150 mM NaCl, 0.1% NP-40, 30 min at 4°C; three washes; SDS-PAGE, Coomassie blue; details: both partners purified
T1 construct: Scs2 (VAMP-associated protein, VAP), S. pombe, residues 1-127 (MSP domain), amplified from genomic DNA and cloned into pET15b; Cloned into the NdeI and BamHI sites of pET15b; also called Scs2 MSP domain; His-tagged version of the Scs2 MSP domain
T1 sequence (looked up): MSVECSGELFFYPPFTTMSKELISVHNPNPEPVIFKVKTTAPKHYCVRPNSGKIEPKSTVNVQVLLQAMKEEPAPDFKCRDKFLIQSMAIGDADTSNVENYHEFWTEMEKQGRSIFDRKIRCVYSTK

[2] = target: T2, His6–Scs2(1–127) (Schizosaccharomyces pombe (strain 972 / …, UniProt O60119)); experiment: pull-down (bead-bound His6-Scs2, Coomassie SDS-PAGE)
T2 chain: T1 sequence (looked up)

GKDVYKHGISNVPDDENEDDLQRYFTALEM (domain or fragment, S. pombe, UniProt O74504 351-380, looked up) [GST–Duc1(351–380)]
binding result [1]: binds | binding result [2]: binds
